Values of other authors as cited in US20200129630A1, “METHODS FOR TREATING CANCER” (BicycleRD Limited, priority 2018, published 2020).
Read-outs that look alike come from different tables or passages of the source.

B1: Cantuzumab mertansine: Anti-CanAg ADC with DM1, SPP cleavable linker (conjugate, chains of the INN, looked up)
VH: QVQLVQSGAEVKKPGETVKISCKASDYTFTYYGMNWVKQAPGQGLKWMGWIDTTTGEPTYAQKFQGRIAFSLETSASTAYLQIKSLKSEDTATYFCARRGPYNWYFDVWGQGTTVTVSS
VL: DIVMTQSPLSVPVTPGEPVSISCRSSKSLLHSNGNTYLYWFLQRPGQSPQLLIYRMSNLVSGVPDRFSGSGSGTAFTLRISRVEAEDVGVYYCLQHLEYPFTFGPGTKLELK
modifications: mertansine (DM1) via SPP linker
B2: Lorvotuzumab mertansine: anti-CD56 ADC with DM1, SPP cleavable linker (conjugate, chains of the INN, looked up)
VH: QVQLVESGGGVVQPGRSLRLSCAASGFTFSSFGMHWVRQAPGKGLEWVAYISSGSFTIYYADSVKGRFTISRDNSKNTLYLQMNSLRAEDTAVYYCARMRKGYAMDYWGQGTLVTVSS
VL: DVVMTQSPLSLPVTLGQPASISCRSSQIIIHSDGNTYLEWFQQRPGQSPRRLIYKVSNRFSGVPDRFSGSGSGTDFTLKISRVEAEDVGVYYCFQGSHVPHTFGQGTKVEIK
modifications: mertansine (DM1) via SPP linker

Legend:
[1] = animals, 58 to 228 mg/m^2 (0.85 and […]^2 DM1) weekly
[2] = not given; remark: listed apart in the source

Molecule | DLT (Grade 3) (IV three-times a week) | MTD (IV three-times a week) | RP2D (every 3 weeks) | t1/2 (in vivo) | MTD (weekly administration) | axonal degeneration [1] | Recommended Phase 2 dose (RP2D) ([2]; 3 consecutive days every 3 weeks) | neurosensory AEs (all grades) ([2]; all patients) | Grade 3 or 4 TEAEs hyponatremia and dyspnea (each) ([2]; in vivo) | t½ ([2]; in vivo)
B1 | transaminitis. Hepatic, hematological, and neurosensory | three-times a week [37], The MTD was 45 mg/m^2 | from this trial was 235 mg/m^2 every 3 weeks (~3.9 mg/m^2 | 40 h | 115 mg/m^2/week (~1.9 mg/m^2/week DM1) with DLTs | mild axonal degeneration |  |  |  | 
B2 |  |  |  |  |  |  | Recommended Phase 2 dose (RP2D) was 60 mg/m^2 | 17% | (each 8.2%)[38]. Lorvotuzumab mertansine is currently | approximately 40 hours
